In this assay the target is CD2 on human T cells (human) (UniProt P06729). As to the kind of experiment: cell-based or functional assay.

The values below come from patent US7323171.

UniProt P06729, sequence (P06729 25-351 limits assumed): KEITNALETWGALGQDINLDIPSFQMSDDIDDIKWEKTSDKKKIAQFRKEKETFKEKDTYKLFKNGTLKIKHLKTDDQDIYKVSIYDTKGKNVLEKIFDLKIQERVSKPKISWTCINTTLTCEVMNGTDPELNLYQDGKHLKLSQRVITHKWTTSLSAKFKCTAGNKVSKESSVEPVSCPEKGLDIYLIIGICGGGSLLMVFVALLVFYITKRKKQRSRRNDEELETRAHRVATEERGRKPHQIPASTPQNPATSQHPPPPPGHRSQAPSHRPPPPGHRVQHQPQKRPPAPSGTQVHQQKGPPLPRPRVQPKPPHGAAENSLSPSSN

The substance anti-CD2 monoclonal antibody TS2/18 registered an inhibition of allogeneic T cell activation by normal skin cells ([3H]TdR incorporation), antibody at 50 µg/ml of 40% and an inhibition of autologous T cell proliferation ([3H]TdR incorporation) in response to lesional psoriatic epidermis, antibody at 50 µg/ml of 60%.
